Measurements published in US20120277286A1, “COMPOSITIONS AND METHODS FOR THE TREATMENT OR PREVENTION OF MITOCHONDRIAL DISEASES” (The Government of the USA, as represented by the Secretary, …, priority 2009, published 2012).

B1: YFP-Parkin: YFP-tagged Parkin E3 ligase expressed from a transfected vector (protein, UniProt O60260 1-465, looked up)
E3 ubiquitin-protein ligase …: MIVFVRFNSSHGFPVEVDSDTSIFQLKEVVAKRQGVPADQLRVIFAGKELRNDWTVQNCDLDQQSIVHIVQRPWRKGQEMNATGGDDPRNAAGGCEREPQSLTRVDLSSSVLPGDSVGLAVILHTDSRKDSPPAGSPAGRSIYNSFYVYCKGPCQRVQPGKLRVQCSTCRQATLTLTQGPSCWDDVLIPNRMSGECQSPHCPGTSAEFFFKCGAHPTSDKETSVALHLIATNSRNITCITCTDVRSPVLVFQCNSRHVICLDCFHLYCVTRLNDRQFVHDPQLGYSLPCVAGCPNSLIKELHHFRILGEEQYNRYQQYGAEECVLQMGGVLCPRPGCGAGLLPEPDQRKVTCEGGNGLGCGFAFCRECKEAYHEGECSAVFEASGTTTQAYRVDERAAEQARWEAASKETIKKTTKPCPRCHVPVEKNGGCMHMKCPQPQCRLEWCWNCGCEWNRVCMGDHWFDV
modifications: YFP fusion
notes: YFP-tagged Parkin E3 ligase expressed from a transfected vector

Legend:
[1] = test system: rat cortical neurons; experiment: Endogenous Parkin in heavy membrane pellet, Western blot; type: cell-based; conditions: CCCP 5 hours
Method: HeLa cells stably expressing YFP-Parkin using the Flp-In system (Invitrogen) were creating according to the manufacturer's instructions and maintained in 300 μg/ml hygromycin (Sigma-Aldrich). Rat cortical neurons were isolated on embryonic day 18 and grown in neurobasal media supplemented with B-27, L-glutamine, and penicillin/streptomycin. All cell culture materials were obtained from Invitrogen and all chemicals were obtained from Sigma-Aldrich. Chemicals were prepared from DMSO stock solutions, except paraquat, N-acetyl-cysteine, and 3-methyladenine, which were added fresh to media. Mfn1−/−, Mfn2−/− and Mfn1−/−, Mfn2−/− double knockout MEFs were generously donated by D. C. […]
Image contrast and brightness were adjusted in Photoshop (Adobe). Colocalization was assessed with line scans using MetaMorph (MDS Analytical Technologies). For analysis of mitochondrial membrane potential in cells, mitochondrial voxels in each image (the cytochrome c channel threshold was ≧400 au) were segregated into Parkin-positive (the YFP-Parkin channel threshold was ≧1,100 au) or Parkin-negative subsets, and MitoTracker intensity for each voxel was measured using Volocity software (Improvision). For each cell, the mean MitoTracker intensity per voxel was calculated for the Parkin-positive and Parkin-negative subsets. […]

[2] = test system: Cytochrome c oxidase; experiment: Cytochrome c oxidase activity assay; type: cell-based, human
Method: Cells grown on 10 cm diameter dishes were collected in extraction buffer [10 mM HEPE, 10 mM […], 1.5 mM MgCl2,4 mM NaF, 100 μM NaOVac, 1× protease cocktail (Roche)] and lysed by 20 passages through a 25 gauge needle. Samples were spun at 500×g for 5 minutes to pellet nuclei. The supernatant was then spun at 8000 rpm for 10 minutes to pellet the mitochondrial rich heavy membrane fraction. The pellet was washed with extraction buffer once and resuspended in 1× enzyme dilution buffer containing 1 mM n-dodecyl-p-maltoside (CYTOCX1 kit, Sigma). The COXI activity assay was performed according to the manufacturer's instructions. Fresh 10 μg of mitochondrial protein and 10 μM Ferrocytochrome c substrate were used in each assay. SpectraMax plus^384 (Molecular Devices) was used to measure A550 every 10 seconds for […] The Vmax of each sample was calculated by SOFTmax PRO (Molecular Devices). The mean and standard deviation were calculated from three experiments

[3] = test system: HeLa cells; experiment: Parkin in mitochondria-rich membrane fraction, immunoblot; type: cell-based; conditions: HeLa, CCCP 1 hr, Western blotting
Text: (§1) For PINK1 experiments, cells were fractionated using the Mitochondria Isolation Kit (Pierce), according to manufacturer's specifications with slight modifications. To isolate integral membrane proteins, membrane fractions obtained as above were carbonate extracted with 0.1M Na2CO3 fresh cold buffer and membranes were pelleted, as described in the supplemental methods. For Parkin experiments, cells were fractionated as described previously, with minor modifications described in the supplemental methods (Narendra (2008) J Cell Biol 183: 795-803). The following primary antibodies were used: anti-Parkin (PRK8) monoclonal (Santa Cruz), anti-Tom20 polyclonal (Santa Cruz), anti-cytochrome c monoclonal (BD Biosciences), anti-PINK1 polyclonal (Novus Biologicals), anti-VDAC monoclonal (Calbiochem), anti-GAPDH polyclonal (Sigma-Aldrich), anti-Tubulin monoclonal (Sigma-Aldrich), anti-V5 monoclonal (Invitrogen), anti-GFP polyclonal (Invitrogen).
as §1, with “with slight modifications described in the supplemental methods. To isolate” for “with slight modifications. To isolate”, “minor modifications detailed in the” for “minor modifications described in the”, “supplemental methods (Narendra (2008) J Cell Biol 183: 795-803). The protease protection assay was performed as described previously (Chen (2005) J Biol Chem 280: 26185-26192). Cells were fixed and immunostained as described previously (Narendra (2008)” for “supplemental methods (Narendra (2008)”, “anti-GFP polyclonal (Invitrogen), anti-TIM23 monoclonal (BD Biosciences), and anti-Hsp60 monoclonal (Stressgen).” for “anti-GFP polyclonal (Invitrogen).”

[4] = test system: HeLa cells; experiment: Survival in glucose or galactose media after CCCP; type: cell-based
Text: To further confirm that cells had lost their mitochondria, their growth in glucose media or galactose media, which lacked glucose, was examined. […] In contrast, the majority of control cells, which had been treated with CCCP but lacked Parkin, retained their mitochondria and could survive in both glucose and galactose media for at least 4 days (FIG. 4H).
Cultured cells seeded in borosilicate chamber slides (Thermo Fisher Scientific) were transfected or cotransfected with YFP-Parkin, ECFP-Parkin, mCherry-Parkin, DsRed-Mito (Clontech Laboratories, Inc.), pcDNA3.1 (Invitrogen), vMIA, and/or Drp1K38A constructs using Fugene 6 (Roche). Parkin-myc was a gift from M. Cookson (National Institutes of Health, Bethesda, Md.). Cells were fixed 12-24 hours after transfection with 4% paraformaldehyde in PBS. Cells were stained with following primary antibodies: mouse monoclonal cytochrome c (BD), rabbit polyclonal Tom20 (Santa Cruz Biotechnology, Inc.), mouse monoclonal Parkin PRK8 (Santa Cruz Biotechnology, Inc.), rabbit polyclonal PMP70 (Invitrogen), and/or mouse monoclonal TRAP1 (Abcam); and with the following secondary antibodies: mouse and/or rabbit Alexa 488, 594, and 633 (Invitrogen). For assessment of mitochondrial membrane potential, cells were pulsed with 50 nM Mito-Tracker red (Invitrogen) for 15 min, washed, and incubated for an additional 10 minutes before fixation or imaging. […]

Molecule	endogenous Parkin level in the membrane pellet [1]	COX activity relative to parental 143B cells ([2]; COXICA65 cybrid, YFP-Parkin for 45 days)	COX activity relative to parental 143B cells ([2]; COXICA65 cybrid, YFP-Parkin for 60 days)	COX activity relative to parental 143B cells ([2]; Parkin-enriched cybrid cells stably at ˜50% wild-type mtDNA, 67 days without selection)	translocation of YFP-Parkin variant to mitochondria-rich membrane fraction [3]	cells without detectable mitochondria able to survive ([4]; 4 days in galactose media after 10 μM CCCP 72 hours)	cells without detectable mitochondria able to survive ([4]; 4 days in glucose media after 10 μM CCCP 72 hours)
N#CC(C#N)=NNc1cccc(Cl)c1 [CCCP, carbonyl cyanide m-chlorophenylhydrazone]	increased levels in the membrane pellet						
B1		65.8±16.14%	96.90±8.49%	55.7±29.2%	increase	0%	72.8%
